Test results: patent publication US20070036793A1, “Methods for use of an lkb1/strad7mo25 complex” (priority 2003, published 2007)

Biological target: T1, LKB1 (Mus musculus, UniProt Q9WTK7)
T1 construct: Constructs expressing the full length wild type and kinase dead mouse LKB1 have been described previously; made in house; host or cells: 293 cells, transiently transfected
T1 sequence (Q9WTK7 1-433 limits assumed): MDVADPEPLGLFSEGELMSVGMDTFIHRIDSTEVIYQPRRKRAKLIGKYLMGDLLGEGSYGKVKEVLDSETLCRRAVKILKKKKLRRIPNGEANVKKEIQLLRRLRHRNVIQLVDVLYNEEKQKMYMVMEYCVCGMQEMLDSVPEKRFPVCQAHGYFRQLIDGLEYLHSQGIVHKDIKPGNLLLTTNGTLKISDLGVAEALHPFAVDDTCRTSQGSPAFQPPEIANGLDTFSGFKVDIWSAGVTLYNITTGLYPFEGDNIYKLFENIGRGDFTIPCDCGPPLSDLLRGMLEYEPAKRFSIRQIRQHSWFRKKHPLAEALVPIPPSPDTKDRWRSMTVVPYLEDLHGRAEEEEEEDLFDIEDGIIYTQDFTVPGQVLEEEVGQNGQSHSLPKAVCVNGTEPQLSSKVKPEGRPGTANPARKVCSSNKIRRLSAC
T1 sequence (Q7RTN6 1-431 partner): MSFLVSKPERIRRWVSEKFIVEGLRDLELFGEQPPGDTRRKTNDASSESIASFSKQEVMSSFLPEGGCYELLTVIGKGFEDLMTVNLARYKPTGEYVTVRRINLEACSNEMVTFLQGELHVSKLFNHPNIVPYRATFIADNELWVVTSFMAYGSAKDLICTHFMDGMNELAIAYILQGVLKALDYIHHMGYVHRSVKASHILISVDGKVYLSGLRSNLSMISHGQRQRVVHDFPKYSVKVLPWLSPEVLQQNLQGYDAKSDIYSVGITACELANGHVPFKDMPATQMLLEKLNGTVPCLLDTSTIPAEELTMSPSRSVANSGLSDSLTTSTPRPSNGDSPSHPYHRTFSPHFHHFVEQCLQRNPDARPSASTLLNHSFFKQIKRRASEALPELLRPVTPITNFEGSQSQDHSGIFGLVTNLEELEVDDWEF
T1 sequence (Q9Y376 1-341 partner): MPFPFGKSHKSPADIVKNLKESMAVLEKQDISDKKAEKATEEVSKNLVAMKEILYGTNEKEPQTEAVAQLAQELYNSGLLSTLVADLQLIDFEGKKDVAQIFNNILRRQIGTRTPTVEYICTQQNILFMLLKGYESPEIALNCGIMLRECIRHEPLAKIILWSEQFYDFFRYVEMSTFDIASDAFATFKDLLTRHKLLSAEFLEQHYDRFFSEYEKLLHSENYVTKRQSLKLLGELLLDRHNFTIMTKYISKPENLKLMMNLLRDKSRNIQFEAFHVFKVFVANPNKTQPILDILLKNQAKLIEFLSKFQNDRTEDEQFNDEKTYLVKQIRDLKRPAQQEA
Assay: LKB1 autophosphorylation and phosphorylation of MBP after co-expression with STRAD and MO25 isoforms in 293 cells
Assay type: biochemical
Conditions: GST-LKB1 co-expressed with STRAD and MO25 isoforms in 293 cells
Protocol: FIG. 9. Activation of LKB1 by association with STRAD and MO25 Isoforms. 293 cells were transfected with constructs encoding GST-LKB1 in the presence or absence of constructs encoding the indicated isoforms of STRAD and MO25. 36 h post-transfection, GST-LKB1 was affinity purified and assayed for autophosphorylation and transphosphorylation of MBP as described in the materials and methods. The reactions were electrophoresed and the gel autoradiographed (top panel). Phosphorylation of MBP by LKB1 at Thr65 was also monitored by immunoblotting with a phosphospecific antibody (T65-P), which recognises MBP phosphorylated by LKB1 at this residue. Each reaction was also immunoblotted with the appropriate epitope tag antibodies to monitor levels of LKB1, STRAD and MO25 isoforms. Similar results were obtained in 3 separate experiments.
LKB1 autophosphorylation and phosphorylation of MBP. […] After incubation for 40 min at 30° C., the reactions were terminated by the addition of 8 μl of sample Buffer. 30 μl was electrophoresed on SDS-polyacrylamide gels, which were then dried and analysed by autoradiography to quantify LKB1 autophosphorylation, MBP and STRADα phosphorylation. 5 μl of each reaction was diluted in 45 μl of 1× SDS Sample Buffer. […]

increase in LKB1 activity relative to LKB1 expressed alone: 4 fold
B1: STRADα: STE20-related pseudokinase (STe20-Related ADaptor protein-α) that binds and activates LKB1 (protein, UniProt Q7RTN6 1-431, looked up)
STE20-related kinase adapter …: T1 sequence (Q7RTN6 1-431 partner)
